From doi:10.1101/2023.01.10.523476 (bioRxiv, 2023)
Like-named read-outs stand apart in the source and are kept apart here.

Legend:
cryo-EM structure [1] = target: the molecule itself; assay: cryo-EM structure
cryo-EM structure [2] = target: the molecule itself; assay: cryo-EM structure; remark: listed apart in the source

| Protein | stoichiometry N (cryo-EM structure [1]) | stoichiometry N (cryo-EM structure [2]) |
| --- | --- | --- |
| GspDβ secretin (ETEC H10407 strain) with hexahistidine tag (natural protein) EEATFTANFKDTDLKSFIETVGANLNKTIIMGPGVQGKVSIRTMTPLNERQYYQLFLNLLEAQGYAVVPMENDVLKVVKSSAAKVEPLPLVGEGSDNYAGDEMVTKVVPVRNVSVRELAPILRQMIDSAGSGNVVNYDPSNVIMLTGRASVVERLTEVIQRVDHAGNRTEEVIPLDNASASEIARVLESLTKNSGENQPATLKSQIVADERTNSVIVSGDPATRDKMRRLIRRLDSEMERSGNSQVFYLKYSKAEDLVDVLKQVSGTLTAAKEEAEGTVGSGREIVSIAASKHSNALIVTAPQDIMQSLQSVIEQLDIRRAQVHVEALIVEVAEGSNINFGVQWASKDAGLMQFANGTQIPIGTLGAAISQAKPQKGSTVISENGATTINPDTNGDLSTLAQLLSGFSGTAVGVVKGDWMALVQAVKNDSSSNVLSTPSITTLDNQEAFFMVGQDVPVLTGSTVGSNNSNPFNTVERKKVGIMLKVTPQINEGNAVQMVIEQEVSKVEGQTSLDVVFGERKLKTTVLANDGELIVLGGLMDDQAGESVAKVPLLGDIPLIGNLFKSTADKKEKRNLMVFIRPTILRDGMAADGVSQRKYNYMRAEQIYRDEQGLSLMPHTAQPVLPAQNQALPPEVRAFLNAGRTR | 15 | – |
| GspDα secretin (E. coli K12 strain) (natural protein) ENEQYGANFNNADIRQFVEIVGQHLGKTILIDPSVQGTISVRSNDTFSQQEYYQFFLSILDLYGYSVITLDNGFLKVVRSANVKTSPGMIADSSRPGVGDELVTRIVPLENVPARDLAPLLRQMMDAGSVGNVVHYEPSNVLILTGRASTINKLIEVIKRVDVIGTEKQQIIHLEYASAEDLAEILNQLISESHGKSQMPALLSAKIVADKRTNSLIISGPEKARQRITSLLKSLDVEESEEGNTRVYYLKYAKATNLVEVLTGVSEKLKDEKGNARKPSSSGAMDNVAITADEQTNSLVITADQSVQEKLATVIARLDIRRAQVLVEAIIVEVQDGNGLNLGVQWANKNVGAQQFTNTGLPIFNAAQGVADYKKNGGITSANPAWDMFSAYNGMAAGFFNGDWGVLLTALASNNKNDILATPSIVTLDNKLASFNVGQDVPVLSGSQTTSGDNVFNTVERKTVGTKLKVTPQVNEGDAVLLEIEQEVSSVDSSSNSTLGPTFNTRTIQNAVLVKTGETVVLGGLLDDFSKEQVSKVPLLGDIPLVGQLFRYTSTERAKRNLMVFIRPTIIRDDDVYRSLSKEKYTRYRQEQQQRIDGKSKALVGSEDLPVLDENTFNSHAPAPSSR | – | 15 |
